Data from patent publication US20100322950A1.

Target: CD44 receptors on SMMC-7721-SC2 hepatocellular carcinoma cells (human) (UniProt P16070)
Assay: cell-based or functional assay

CD44 receptors on SMMC-7721-SC2 hepatocellular carcinoma cells (human), sequence (P16070 21-742): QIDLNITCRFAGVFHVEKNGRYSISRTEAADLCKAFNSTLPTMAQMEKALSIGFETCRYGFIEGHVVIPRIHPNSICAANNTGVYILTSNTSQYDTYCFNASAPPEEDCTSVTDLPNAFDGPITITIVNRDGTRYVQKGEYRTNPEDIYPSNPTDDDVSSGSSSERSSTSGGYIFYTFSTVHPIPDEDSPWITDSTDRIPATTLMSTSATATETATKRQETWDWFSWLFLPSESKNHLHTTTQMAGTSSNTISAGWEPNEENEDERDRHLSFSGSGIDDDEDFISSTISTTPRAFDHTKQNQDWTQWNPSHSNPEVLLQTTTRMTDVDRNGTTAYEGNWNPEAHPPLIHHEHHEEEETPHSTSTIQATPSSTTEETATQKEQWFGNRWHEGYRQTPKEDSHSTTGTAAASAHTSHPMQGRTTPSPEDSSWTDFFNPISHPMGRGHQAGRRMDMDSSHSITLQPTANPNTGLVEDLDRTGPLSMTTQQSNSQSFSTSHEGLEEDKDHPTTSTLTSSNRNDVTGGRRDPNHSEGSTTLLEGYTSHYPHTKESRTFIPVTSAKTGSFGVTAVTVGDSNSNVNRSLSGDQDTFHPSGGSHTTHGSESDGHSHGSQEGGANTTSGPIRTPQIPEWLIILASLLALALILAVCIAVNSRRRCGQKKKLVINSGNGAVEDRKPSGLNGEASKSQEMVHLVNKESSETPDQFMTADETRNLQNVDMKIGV

cellular invasion of SMMC-7721-SC2 cells through Matrigel, 36 hours: > 2 fold
Substance: OPN-5 kD expressed from the pDest-490 vector with C-terminal 1xFLAG tag (from UniProt P10451 167-210) (ligand)
